Experimental data as given in paper PMC5593896, “A signal-on built in-marker electrochemical aptasensor for human prostate-specific antigen based on a hairbrush-like gold nanostructure”.

Biological target: prostate-specific antigen (PSA) (human, UniProt P07288 25-261)
Experiment: electrochemical aptasensor (signal-on, MB marker); immobilized aptamer; linear range 0.125-128 ng/mL, LOD 50 pg/mL (40 in Table 1); no Kd in material; 20 mM Tris-HCl pH 7.4, 1 h at 37 °C, then rinsed with Tris; salt not stated
Conditions: protein: commercial; label: methylene blue (3', redox marker)

Chain of prostate-specific antigen (PSA) (P07288 25-261): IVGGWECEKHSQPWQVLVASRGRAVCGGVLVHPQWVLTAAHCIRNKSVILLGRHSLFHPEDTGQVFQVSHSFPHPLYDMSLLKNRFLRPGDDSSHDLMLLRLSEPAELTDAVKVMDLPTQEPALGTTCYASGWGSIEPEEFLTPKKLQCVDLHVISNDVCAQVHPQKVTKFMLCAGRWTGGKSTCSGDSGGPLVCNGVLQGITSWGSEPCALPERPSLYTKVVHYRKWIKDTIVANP

TTTTTAATTAAAGCTCGCCATCAAATAGCTTT (ssDNA, 5' SH-(CH2)6; 3' methylene blue) [PSA aptamer (SH/MB)]
binding result: binds
